Test results published in the nanobody polyreactivity screen of Harvey et al. (2022).

experiment: yeast display, Sf9 membrane polyspecificity reagent, FACS + sequencing; frameworks hold sequencing errors
How it was run: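 A synthetic nanobody library was expressed on Saccharomyces cerevisiae BJ5465 by galactose induction for 36–48 hours. The library was stained for 1 hour at 4 °C with 10% biotinylated, detergent-solubilized Sf9 membrane reagent and enriched with streptavidin microbeads before FACS. Low and high (top ~1%) gates were set on anti-HA fluorescence for expression and streptavidin fluorescence for reagent binding, and each polyreactivity label reflects the gate of origin.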

Row | Sequence | polyreactivity (PSR sort gate)
1 | QVQLVESGGGLVQAGGSLRLSCAASGRTLFGNAMGWYRQAPAKERELVAAISRRGGSTSYADSVKGRFTISRDNAKNTVYLQMNSLKPEDTAVYYCASAQGKYTGTHYPYDYWGQGTQVTVSS | low polyreactivity
2 | QVQLVESGGGLVQAGGSLRLSCAASGRTLFGNAMGWYRQAPGKERELVAAISRRGGSTSYADSVKGRFTISRDNAKNTVYLQMNSLKPEDTAVYYCAAAQGKYTGTHYPYDYWGQGTQVTVSS | high polyreactivity
3 | QVQLVESGGGLVQAGGSLRLSCAASGRTLGAYAMGWYRQAPGKERELVAAIRWSGSSTYYADSVKGRFTISRDNAKNTVYLQMNSLKPEDTAVYYCAAYWSRVLYGMNYWGQGTQVTVSS | high polyreactivity
4 | QVQLVESGGGLVQAGGSLRLSCAASGRTLGGYAMGWYRQAPGKERELVASITARGGSTYYADSVKGRFTISRDNAKNTVYLQMNSLKPEDTAVYYCATYFARGYNSWGQGTQVTVSS | high polyreactivity
5 | QVQLVESGGGLVQAGGSLRLSCAASGRTLGGYTMGWYRQAPGKERELVAAITTGGSTNYADSVKGRFTISRDNAKNTVYLQMNSLKPEDTAVYYCATDLVFDKRYWYDYWGQGTQVTVSS | low polyreactivity
6 | QVQLVESGGGLVQAGGSLRLSCAASGRTLGIYAMGWYRQAPGTERELVAAITLSGSDTYYADSVKGRFTISRDNAKNTVDLQMNSLKPEDTAVYYCAAKTYGGYGKYGYWGQGTQVTVSS | low polyreactivity
7 | QVQLVESGGGLVQAGGSLRLSCAASGRTLGPYTMGWYRQAPGKERELVAVISSRTGRTYYADSVKGRFTISRDNAKNTVYLQMNSLKPEDTAVYYCNAGGRYHAPSGDYWGQGTQVTVSS | low polyreactivity
8 | QVQLVESGGGLVQAGGSLRLSCAASGRTLGRYAMGWYRQAPGKERELVAAINVGGGTTHYADSVKGRFTISRDNAKNTVYLQMNSLKPEDTAVYYCAASYRDGHIRHDYWGQGTQVTVSS | low polyreactivity
9 | QVQLVESGGGLVQAGGSLRLSCAASGRTLIDNAKGWYRPAPGKERELVASISITNTYYADSVKGRFTISRDNAKNTVYLQMNSLKPEDTAVYYCNAEARPRGVDVEEAYFRYDYWGHGTQVTVSS | low polyreactivity
10 | QVQLVESGGGLVQAGGSLRLSCAASGRTLLAYAMGWYRQAPGKEREFVAAISSRGVRTYYADSVKGRFTISRDNAKNTVYLQMNSLKPEDTAVYYCATRGTKSIKDVPGFRYGYWGQGTQVTVSS | high polyreactivity
11 | QVQLVESGGGLVQAGGSLRLSCAASGRTLLYYAMGWYRQAPGKERELVARISTGGGTSYADSVKGRFTISRDNAKNTVYLQMNSLKPEDTAVFYCAAKRSYRRALLTLDYWGHGTQVTVSS | high polyreactivity
12 | QVQLVESGGGLVQAGGSLRLSCAASGRTLLYYAMGWYRQAPGKERELVASISRGSSTNYADSVKGRFTISRDNAKNTVYLQMNSLKPEDTAVYWGQGTQVTVSS | low polyreactivity
13 | QVQLVESGGGLVQAGGSLRLSCAASGRTLNDYAMEWYRQAPGKERELVAGITSGDSTYYADSVKGRFTISRDNAKNTVYLQMNSLIPEDTAVYYCAADSDTFYYTGYDYDYWGQGTQVTVSS | low polyreactivity
14 | QVQLVESGGGLVQAGGSLRLSCAASGRTLPANGMGWYRQAPGKQREFVAAINWRGGITYYADSVKGRFTISRDNSKNTVYLQMNSLNPEDTAVYYCARLRYFLLNGSLRYGTSDRDYWGQGTQVTVSS | high polyreactivity
15 | QVQLVESGGGLVQAGGSLRLSCAASGRTLPFYAMGWYRPAPGKERELVAAISRSGARTYYADSVKGRFTISRDHAKNTVYLQMNSLKPEDTAVYYFAAGFMWYIGNSKFDYWGQGTQVTVSS | high polyreactivity
16 | QVQLVESGGGLVQAGGSLRLSCAASGRTLPINAMGWYIEAPGKERELVAAISTSGTRTYYADSVKGRFTISRDNAKNTVYLQMNSLKPEDTAVYYCNKDYWKVRSYDYCGQGTQVTVSS | low polyreactivity

Row | Sequence | polyreactivity (PSR sort gate)
17 | QVQLVESGGGLVQAGGSLRLSCAASGRTLPYNAMAWYRQAPGKESELVAAITWSGGRTYYADSVKGRFTISRDNAKNTVYLQMNSLKPEDTAVYYCAAGKSSYGKPKYYYWGQGTQVTVSS | high polyreactivity
18 | QVQLVESGGGLVQAGGSLRLSCAASGRTLQSYAMGWYRQAPGKERELVAAITSTGTTYYADSVKGRFTISRDNAKNTVYLQMNSLKPEDTAVYYCAAGGSIVLGHYHYVKMYYWGQGTQVTVSS | high polyreactivity
19 | QVQLVESGGGLVQAGGSLRLSCAASGRTLQTYVMGWYRQAPGKERELVAAITRGGGSTYYADSVKGRFTISRDNAKNTVYLQMNSLKPEDTAVYYCAASALRFNSRFSHWYNYWGQGTQVTVSS | high polyreactivity
20 | QVQLVESGGGLVQAGGSLRLSCAASGRTLRGNAMGWYRQAPGKERELVAGITSGGSTNYADSVKGRFTISRDNAKNTVYLQMNSLKPEDTAVYYCAAAYYLSFGRYYTNYDYWGQGTQVTVSS | high polyreactivity
21 | QVQLVESGGGLVQAGGSLRLSCAASGRTLRLYAMGWSRQAPGKERELVAAISSRGRTYYADSVKGRFTISRDNAKNTVYLQMNSLKPEDTAVYYCNTAQFLREDYWGQGTQVTVSS | high polyreactivity
22 | QVQLVESGGGLVQAGGSLRLSCAASGRTLRPYAMGWYRQAPGKEREFVAAIRWSGGSTYYADSVKGRFTISRDNAKNTVYLQMNSLKPEDTAVYYCAASFLTYYLSLYDYWGQGTQVTVSS | high polyreactivity
23 | QVQLVESGGGLVQAGGSLRLSCAASGRTLRRYAMGGYRQAPGKERELVAAISSGVSTNYADSVKGRFTISRDNAKNTVYLQMNSLKPEDTAVYYCNKKRPVYALSIVPYYSWGQGTQVTVSS | high polyreactivity
24 | QVQLVESGGGLVQAGGSLRLSCAASGRTLSANAMGWYRQAPGKERELVATISTRGGRTYYADSVKGRFTISRDNAKNTVYLQMNSLKPEDTAVYYCARLPPGDMDYWGQGTQVTVSS | low polyreactivity
25 | QVQLVESGGGLVQAGGSLRLSCAASGRTLSGYAMGWYRQAPGKERELVAAISRRGGRTYYADSVKGRFTISRDNAKNTVYLQMNSLKPEDTAVYYCAAQVYTKTGDWQFYYWGQGTQVTVSS | high polyreactivity
26 | QVQLVESGGGLVQAGGSLRLSCAASGRTLSGYVMGWYRQAPGKERELDAAIDWSGGTTYYADSVKGRFTISRDTAKNTVYVQMNSLKPEDTAVYYCAAEVLSWLYWPYYYWGQGSQVTVSS | high polyreactivity
27 | QVQLVESGGGLVQAGGSLRLSCAASGRTLSRNAMGWYRQAPGKEREFVAAISQRGGSTYYADSVKGRFTISRDNAKNTVYLQMNSLKPEDTAVYYCARRYNAQDYARFDYWGQGTQVTVSS | high polyreactivity
28 | QVQLVESGGGLVQAGGSLRLSCAASGRTLSRYTMGWYRQAPGKERELVAAISTSGSTYYADSVKGRFTISRDNAKNTVYFQMNSLKPEDTAVYYCNAVRRFLQYATGYDYWRQGTQVTVSS | high polyreactivity
29 | QVQLVESGGGLVQAGGSLRLSCAASGRTLSTNGMGWYRQAPGKERELVATITRRGGRTYYADSVKGRFTISRDNAKNTVYLQMNSLKPEDTAVYYCATEQADRRVTYNYWGQGTQVTVSS | high polyreactivity
30 | QVQLVESGGGLVQAGGSLRLSCAASGRTLTIYAMGWYRQAPGKERELVATIRSSGSTNYADSVKGRFTISRDNAKNTVYLQMNSLKPEDTAVYYCSARGFYPTNVGKYNYWGQGTQVTVSS | high polyreactivity
31 | QVQLVESGGGLVQAGGSLRLSCAASGRTLTLNAMGWYRQAPGKERELVAAISGSGGRTFYADSVKGRFTISRDNAKNTVYLQMNSLKPEDTAVYYCAADYFYLKWYEYWGQGTQVTVSS | high polyreactivity
32 | QVQLVESGGGLVQAGGSLRLSCAASGRTLTRYTMGWYRQAPGKERELVATISRSGGNTHYADSLKGRFTISRDNAKNTVYFQMNSLKPEDTAVFYCNAVRYAIYGYDYWGQGTQVTVSS | high polyreactivity
